Laboratory results from paper PMC9886945.

Key:
[1] = molecular target: Mtb RNAP holoenzyme with σ^B in which residues 252-323 (subregion 4.2) are deleted (M. tuberculosis) (UniProt P9WGZ1); test: SEC
[2] = molecular target: Mtb RNAP holoenzyme with σ^B in which residues 252-323 (subregion 4.2) are deleted (M. tuberculosis) (UniProt P9WGZ1); test: negative stain EM

Mtb RNAP holoenzyme with σ^B in which residues 252-323 (subregion 4.2) are deleted, P9WGZ1;P9WGY9;P9WGY7;P9WGY5;P9WGI5
stoichiometry N [1]: 8
stoichiometry N [2]: 8
